US5824484, “RXR homodimer formation” (La Jolla Cancer Research Foundation)

Tests used:
RXR alpha homodimer [1] = molecular target: T1, RXR alpha homodimer (UniProt P19793 P19793:1-462); test: EMSA; with 9-cis-RA; complex slower than heterodimer; reduced when RAR present; conditions: chain copies: 2 (stated); label: 32P
Procedure: (§1) (a) In vitro synthesized RXRα was incubated either with (+) or without (−) indicated hormones (10^-7M 9-cis-RA; 10^-6M RA; 10^-6M T_3) in the presence or absence of in vitro synthesized TRα or RARβ for 30 min at room temperature. After this preincubation, the reaction mixtures were analyzed by gel retardation assay using ^32P-labeled TREpal as probe. Lane 1 represents the nonspecific binding of unprogrammed reticulocyte lysate. Open triangles indicate the nonspecific complex observed with unprogrammed reticulocyte lysate. Solid triangles indicate the specific TRα-RXRα heterodimer binding. Arrows indicate specific RXRα homodimer binding. The RXRα/RARβ heterodimer migrates at the same position as the RXRα homodimer. For comparison, the effect of 9-cis-RA on RARβ binding is shown.
(§2) (b) The effect of 9-cis-RA on RXR homodimer binding of ApoAI-RARE or CRBPII-RARE was analyzed essentially as described in FIG. 1a. Lane 1 represents the nonspecific binding of unprogrammed reticulocyte lysate, which are indicated by the open triangles. Solid triangles indicate the RAR/RXR heterodimer complex. Arrows indicate the specific RXR binding complex.
(§3) Gel retardation assays using in vitro synthesized receptor protein are described in the FIG. 1 legend. The following oligonucleotides and their complements were used as probes in FIGS. 3 and 4.

RXR alpha homodimer [2] = molecular target: T1, RXR alpha homodimer; test: EMSA; with 9-cis-RA; conditions: chain copies: 2 (stated); label: 32P
Procedure: as §1
(§4) FIGS. 4a and 4c show the response element specific binding of RXR homodimer. The effect of 9-cis-RA on RXR binding on RA specific response elements (a), T_3 specific response elements (b), or estrogen specific response element (c) was analyzed by gel retardation assays as described in FIG. 1a. For comparison, the binding of RXR/RAR heterodimer (a), RXR/TR heterodimer (b) or estrogen receptor (c) is shown. Open triangles indicate the nonspecific binding of unprogrammed reticulocyte lysate. Solid triangle indicates the RAR/RXR heterodimer complex (a), TR/RXR heterodimer complex (b) or ER complexes (c). […]

RXR alpha homodimer [3] = molecular target: T1, RXR alpha homodimer; test: EMSA; with or without 9-cis-RA; conditions: chain copies: 2 (stated); label: 32P
Procedure: as §1, §4

[4] = molecular target: TR alpha/RXR alpha heterodimer (UniProt P10827-2;P19793 P10827-2:1-410,P19793:1-462); test: EMSA; conditions: label: 32P
Procedure: as §1, §4

Estrogen receptor = Estrogen receptor (UniProt P03372 P03372:1-595); test: EMSA; ER complex shown for comparison; conditions: chain copies: 2 (inferred); label: 32P
Procedure: as §1, §4

RXR alpha homodimer [5] = molecular target: T1, RXR alpha homodimer; test: EMSA; with 9-cis-RA (effect from 1e-9 M, optimal 1e-8 M); little binding without ligand; also induced by SR11217 and SR11237; conditions: chain copies: 2 (stated); label: 32P
Procedure: as §1

RAR beta = molecular target: T2, RAR beta (UniProt P10826-2 P10826-2:1-448); test: EMSA; RAR homodimer not induced by 9-cis-RA; conditions: label: 32P
T2 sequence: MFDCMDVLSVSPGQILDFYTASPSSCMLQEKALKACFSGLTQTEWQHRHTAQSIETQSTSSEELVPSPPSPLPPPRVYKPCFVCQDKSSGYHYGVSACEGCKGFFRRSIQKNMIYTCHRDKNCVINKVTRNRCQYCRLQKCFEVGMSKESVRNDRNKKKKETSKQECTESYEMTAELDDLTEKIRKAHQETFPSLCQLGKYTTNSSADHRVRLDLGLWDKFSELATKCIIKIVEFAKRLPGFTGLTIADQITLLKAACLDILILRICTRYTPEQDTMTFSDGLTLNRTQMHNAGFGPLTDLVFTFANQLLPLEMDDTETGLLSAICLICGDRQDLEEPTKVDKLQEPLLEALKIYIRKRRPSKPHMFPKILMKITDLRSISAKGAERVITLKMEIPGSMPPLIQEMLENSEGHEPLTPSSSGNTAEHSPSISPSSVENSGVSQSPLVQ
Procedure: as §1, §2, §3

RXR alpha homodimer [6] = molecular target: T1, RXR alpha homodimer; test: EMSA; strong with 9-cis-RA, lesser with 1e-6 M RA; conditions: chain copies: 2 (stated); label: 32P
Procedure: as §1, §2, §3

T1 sequence (P19793 whole entry, one chain of several): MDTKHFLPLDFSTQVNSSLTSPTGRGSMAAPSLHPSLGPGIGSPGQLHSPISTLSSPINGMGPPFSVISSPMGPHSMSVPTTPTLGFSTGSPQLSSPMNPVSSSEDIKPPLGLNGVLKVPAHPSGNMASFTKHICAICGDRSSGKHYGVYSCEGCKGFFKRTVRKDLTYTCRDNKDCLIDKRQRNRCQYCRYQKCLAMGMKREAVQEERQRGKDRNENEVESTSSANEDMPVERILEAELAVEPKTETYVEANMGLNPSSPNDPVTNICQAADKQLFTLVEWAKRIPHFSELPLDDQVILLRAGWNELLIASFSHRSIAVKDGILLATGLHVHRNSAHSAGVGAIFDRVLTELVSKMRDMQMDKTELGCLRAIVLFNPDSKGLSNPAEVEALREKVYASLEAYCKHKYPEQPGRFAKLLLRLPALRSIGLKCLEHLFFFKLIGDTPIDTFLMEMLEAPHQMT
TR alpha/RXR alpha heterodimer, sequence (P10827 other isoform, or with tags, fused parts or gaps, chain 1 of 2): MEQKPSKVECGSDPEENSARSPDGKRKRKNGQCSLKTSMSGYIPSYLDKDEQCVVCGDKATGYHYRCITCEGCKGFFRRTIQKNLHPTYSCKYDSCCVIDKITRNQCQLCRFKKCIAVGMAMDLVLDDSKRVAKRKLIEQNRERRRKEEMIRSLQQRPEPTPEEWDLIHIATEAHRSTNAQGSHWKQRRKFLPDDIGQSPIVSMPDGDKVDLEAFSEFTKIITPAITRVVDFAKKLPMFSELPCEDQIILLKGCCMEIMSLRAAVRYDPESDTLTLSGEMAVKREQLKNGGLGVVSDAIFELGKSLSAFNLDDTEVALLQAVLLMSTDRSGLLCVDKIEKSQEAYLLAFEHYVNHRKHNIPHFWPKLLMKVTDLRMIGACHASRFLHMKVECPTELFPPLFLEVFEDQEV
TR alpha/RXR alpha heterodimer, sequence (P19793 whole entry, chain 2 of 2): as the sequence (P19793 whole entry, one chain of several) above
Estrogen receptor, sequence (P03372 whole entry, one chain of several): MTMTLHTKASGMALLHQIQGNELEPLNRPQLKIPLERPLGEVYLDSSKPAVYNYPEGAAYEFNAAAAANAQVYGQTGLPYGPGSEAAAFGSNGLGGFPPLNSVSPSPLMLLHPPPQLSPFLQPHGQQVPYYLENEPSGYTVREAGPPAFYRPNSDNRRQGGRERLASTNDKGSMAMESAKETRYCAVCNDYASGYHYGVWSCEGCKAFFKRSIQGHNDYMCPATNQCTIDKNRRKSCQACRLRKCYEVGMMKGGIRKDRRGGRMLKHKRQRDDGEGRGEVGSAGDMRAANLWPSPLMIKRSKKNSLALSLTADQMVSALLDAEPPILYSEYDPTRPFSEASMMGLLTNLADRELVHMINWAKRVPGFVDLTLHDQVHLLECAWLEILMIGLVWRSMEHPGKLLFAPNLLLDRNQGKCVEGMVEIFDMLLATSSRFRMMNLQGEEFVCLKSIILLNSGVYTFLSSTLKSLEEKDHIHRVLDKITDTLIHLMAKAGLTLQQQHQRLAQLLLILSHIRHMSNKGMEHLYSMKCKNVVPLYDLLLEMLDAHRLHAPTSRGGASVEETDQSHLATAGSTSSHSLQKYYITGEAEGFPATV

B1: CRBPII-RARE (dsDNA)
DNA 1: GATCCAGGTCACAGGTCACAGGTCACAGTTCAAGATC
DNA 2: GATCTTGAACTGTGACCTGTGACCTGTGACCTGGATC
- binding result (RXR alpha homodimer [1]): binds

B2: CRBPI-RARE (dsDNA)
DNA 1: GATCCAGGTCAAAAAGTCAGGATC
DNA 2: GATCCTGACTTTTTGACCTGGATC
- binding result (RXR alpha homodimer [2]): no binding

B3: ME-TRE (dsDNA)
DNA 1: GATCCAGGACGTTGGGGTTAGGGGAGGACAGTGGGATC
DNA 2: GATCCCACTGTCCTCCCCTAACCCCAACGTCCTGGATC
- binding result (RXR alpha homodimer [3]): no binding
- binding result [4]: binds

B4: DR-5 (dsDNA)
DNA 1: GATCTCAGGTCATCCTCAGGTCAGATC
DNA 2: GATCTGACCTGAGGATGACCTGAGATC
- binding result (RXR alpha homodimer [2]): no binding

B5: ERE (dsDNA)
DNA 1: GATCTCAGGTCACTGTGACCTGAGATC
DNA 2: GATCTCAGGTCACAGTGACCTGAGATC
- binding result (Estrogen receptor): binds

B6: MHC-TRE (dsDNA)
DNA 1: GATCCTGGAGGTGACAGGAGGACAGCGATC
DNA 2: GATCGCTGTCCTCCTGTCACCTCCAGGATC
- binding result (RXR alpha homodimer [3]): no binding
- binding result [4]: binds

B7: TREpal (dsDNA)
DNA 1: GATCTCAGGTCATGACCTGAGATC
DNA 2: GATCTCAGGTCATGACCTGAGATC
- binding result (RXR alpha homodimer [5]): binds

B8: ApoAI-RARE (dsDNA)
DNA 1: GATCAGGGCAGGGGTCAAGGGTTCAGTGATC
DNA 2: GATCACTGAACCCTTGACCCCTGCCCTGATC
- binding result (RAR beta): no binding
- binding result (RXR alpha homodimer [6]): binds
